Data from paper PMC5485662 (Nature medicine, 2016).

Tests used:
[1] = molecular target: HA ectodomain of wild-type A/California/07/2009 (pdm2009) (Influenza A virus A/California/07/2009 …); assay: BLI
HA of A/USSR/92/1977 [2] = molecular target: T1, HA of A/USSR/92/1977 (Influenza A virus A/USSR/92/1977 …, UniProt P03453, strain); assay: BLI
HA of A/USSR/92/1977 [3] = molecular target: T1, HA of A/USSR/92/1977; assay: cell-based or functional assay

B1: Fab of antibody D1 H1–12 (donor 1, 2011–12 cohort) (Fab, V domains shown)
VH: QVQLQESGPGLVKPSETLSLTCSVSGGSLNTYYWSWIRQPPGKGLEWIGYIYYSGNTNYNPSLKSRVAISVDTSKNQFSLKLTSVTAADTAVYYCARLYMVRGELWGFYFDHWGQGTLVTVSS
VL: QSVLTQPASVSGSPGQSITISCTGTSSDVGSYNLVSWYQHHPGKAPKLMIYEDIERPSGVSNRFSGSKSGNTASLTISGLQAEDEGDYYCCSYAGSSTSWVFGGGTKLTVL
Kd [1]: > 100 µM

B2: Fab of inferred intermediate I-2 of lineage CL6515 (Fab, V domains shown)
VH: EVQLVQSGAEVKKPGESLKISCKGSGYSFTSYWIGWVRQMPGKGLEWMGIIYPGDSDTRYSPSFQGQVTISADKSISTAYLQWSSLKASDTAMYYCARVVADREGFGYYYGMDVWGQGTTVTVSS
VL: EIVLTQSPGTLSLSPGERATLSCRASQSVDSSSLAWYQQKPGQAPRLLIYAASSRATGIPDRFSGSGSGTDFTLTISRLEPEDFAVYYCQQCGSSPWTFGQGTKVEIK
Kd (HA of A/USSR/92/1977 [2]): 1.9 µM | IC50 of neutralisation (microneutralization, MDCK cells) of A/USSR/92/1977 virus (HA of A/USSR/92/1977 [3]): 0.012 µg/mL

B3:  (Fab, V domains shown)
VH: EVQLVQSGAEVKKPGESLKISCKGSGYSFTSYWIGWVRQMPGKGLEWMGIIYPGDSDTRYSPSFQGQVTISADKSISTAYLQWSSLKASDTAMYYCARVVADREGFGYYYGMDVWGQGTTVTVSS
VL: not shown
Kd [1]: > 50 µM

B4: Fab of antibody D1 H1–2 (donor 1, 2011–12 cohort) (Fab, V domains shown)
VH: QVQLQESGPGLVKPSETLSLRCAVSGSSISSLFYWGWIRQPPGKGPEWIGSIYHSGSTYYNPSLKSRVTISVDASKTQFSLNLNSVTAADTAVYYCAREYRILDERSNYFDAWGQGSPVTVSS
VL: SYELTQPPSVSVSPGQTVSITCSGDKMGDKYASWYQQKPGQSPFLVIYQDNKRPSGIPERFSGSNSGNTATLTISGTQAMDEADYYCQTWDISSGVVFGGGTKL
Kd [1]: > 100 µM

B5: Fab of antibody D1 H1–53 (donor 1, 2011–12 cohort) (Fab, V domains shown)
VH: QVQLQESGPGLVKPSETLSLTCTVSGGSITNYFWSWIRQPPGKGLEWIGYISYSGSTNHNPSLKSRVTMSLDTSKKQFSLKLSSVTAADMAVYFCARGERFGESPYYSYHMDVWGQGTTVTVSS
VL: not shown
Kd [1]: > 100 µM
